Values of other authors, collected in paper PMC4186963.

Molecular target: CD28 (Homo sapiens) (UniProt P10747)

Kd: 200 nM
Substance: CD80 (from UniProt P33681)
